B1: Barrier-to-autointegration factor (Homo sapiens), O75531 (parent)
chain: MTTSQKHRDFVAEPMGEKPVGSLAGIGEVLGKKLEERGFDKAYVVLGQFLVLKKDEDLFREWLKDTCGANAKQSRDCFGCLREWCDAFL
partner: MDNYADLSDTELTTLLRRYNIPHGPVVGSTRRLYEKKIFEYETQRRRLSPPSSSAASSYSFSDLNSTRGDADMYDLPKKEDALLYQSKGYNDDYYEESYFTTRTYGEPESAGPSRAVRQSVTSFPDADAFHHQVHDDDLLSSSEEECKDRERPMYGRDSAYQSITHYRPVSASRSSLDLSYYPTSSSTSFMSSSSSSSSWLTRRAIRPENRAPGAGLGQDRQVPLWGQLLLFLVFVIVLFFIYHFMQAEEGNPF
B2: Septin-12 (Homo sapiens), Q8IYM1 (parent)
chain: MDPLRRSPSPCLSSQPSSPSTPPCEMLGPVGIEAVLDQLKIKAMKMGFEFNIMVVGQSGLGKSTMVNTLFKSKVWKSNPPGLGVPTPQTLQLHSLTHVIEEKGVKLKLTVTDTPGFGDQINNDNCWDPILGYINEQYEQYLQEEILITRQRHIPDTRVHCCVYFVPPTGHCLRPLDIEFLQRLCRTVNVVPVIARADSLTMEEREAFRRRIQQNLRTHCIDVYPQMCFDEDINDKILNSKLRDRIPFAVVGADQEHLVNGRCVLGRKTKWGIIEVENMAHCEFPLLRDLLIRSHLQDLKDITHNIHYENYRVIRLNESHLLPRGPGWVNLAPASPGQLTTPRTFKVCRGAHDDSDDEF
partner: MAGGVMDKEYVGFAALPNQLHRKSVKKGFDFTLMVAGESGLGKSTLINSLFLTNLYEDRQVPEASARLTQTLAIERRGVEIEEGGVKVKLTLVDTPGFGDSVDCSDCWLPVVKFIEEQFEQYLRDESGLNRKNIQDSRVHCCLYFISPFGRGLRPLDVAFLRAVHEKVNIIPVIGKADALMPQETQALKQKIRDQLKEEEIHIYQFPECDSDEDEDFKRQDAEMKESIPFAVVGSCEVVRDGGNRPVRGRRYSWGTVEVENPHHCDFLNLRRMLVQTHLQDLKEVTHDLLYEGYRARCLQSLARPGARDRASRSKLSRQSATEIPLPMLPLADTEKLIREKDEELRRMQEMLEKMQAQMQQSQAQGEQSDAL

In the first assay the parent is B1. Conditions: with emd_human EMD.
As for MTTSQKHRDFVTEPMGEKPVGSLAGIGEVLGKKLEERGFDKAYVVLGQFLVLKKDEDLFREWLKDTCGANAKQSRDCFGCLREWCDAFL [A12T], the “effect of a mutation on the interaction” value was “with no effect”.

Another assay covers variants of B2. Conditions: with sept1_human SEPTIN1, Q8WYJ6.
On to MDPLRRSPSPCLSSQPSSPSTPPCEMLGPVGIEAVLDQLKIKAMKMGFEFNIMVVGQSGLGKSTMVNTLFKSKVWKSNPPGLGVPTPQTLQLHSLTHVIEEKGVKLKLTVTDTPGFGDQINNDNCWDPILGYINEQYEQYLQEEILITRQRHIPDTRVHCCVYFVPPTGHCLRPLDIEFLQRLCRTVNVVPVIARADSLTMEEREAFRRRIQQNLRTHCIDVYPQMCFDEDINDKILNSKLRDRIPFAVVGADQEHLVNGRCVLGRKTKWGIIEVENMAHCEFPLLRDLLIRSHLQDLKDITHNIHYENYCVIRLNESHLLPRGPGWVNLAPASPGQLTTPRTFKVCRGAHDDSDDEF [R311C], for which the “effect of a mutation on the interaction” value is on record as “disrupting interaction strength”.
Same read-out and setting: in the case of MDPLRRSPSPCLSSQPSSPSTPPCEMLGPVGIEAVLDQLKIKAMKMGFEFNIMVVGQSGLGKSTMVNTLFKSKVWKSNPPGLGVPTPQTLQLHSLTHVIEEKGVKLKLTVKDTPGFGDQINNDNCWDPILGYINEQYEQYLQEEILITRQRHIPDTRVHCCVYFVPPTGHCLRPLDIEFLQRLCRTVNVVPVIARADSLTMEEREAFRRRIQQNLRTHCIDVYPQMCFDEDINDKILNSKLRDRIPFAVVGADQEHLVNGRCVLGRKTKWGIIEVENMAHCEFPLLRDLLIRSHLQDLKDITHNIHYENYRVIRLNESHLLPRGPGWVNLAPASPGQLTTPRTFKVCRGAHDDSDDEF [T111K] it was “disrupting interaction strength”; in that of MDPLRRSPSPCLSSQPSSPSTPPCEMLGPVGIEAVLDQLKIKAMKMGFEFNIMVVGQSGLGKSTMVNTLFKSKVWKSNPPGLGVPTPQTLQLHSLTHVIEEKGVKLKLTVMDTPGFGDQINNDNCWDPILGYINEQYEQYLQEEILITRQRHIPDTRVHCCVYFVPPTGHCLRPLDIEFLQRLCRTVNVVPVIARADSLTMEEREAFRRRIQQNLRTHCIDVYPQMCFDEDINDKILNSKLRDRIPFAVVGADQEHLVNGRCVLGRKTKWGIIEVENMAHCEFPLLRDLLIRSHLQDLKDITHNIHYENYRVIRLNESHLLPRGPGWVNLAPASPGQLTTPRTFKVCRGAHDDSDDEF [T111M], “disrupting interaction strength”; in that of MDPLRRSPSPCLSSQPSSPSTPPCEMLGPVGIEAVLDQLKIKAMKMGFEFNIMVVGQSGLGKSTMVNTLFKSNVWKSNPPGLGVPTPQTLQLHSLTHVIEEKGVKLKLTVTDTPGFGDQINNDNCWDPILGYINEQYEQYLQEEILITRQRHIPDTRVHCCVYFVPPTGHCLRPLDIEFLQRLCRTVNVVPVIARADSLTMEEREAFRRRIQQNLRTHCIDVYPQMCFDEDINDKILNSKLRDRIPFAVVGADQEHLVNGRCVLGRKTKWGIIEVENMAHCEFPLLRDLLIRSHLQDLKDITHNIHYENYRVIRLNESHLLPRGPGWVNLAPASPGQLTTPRTFKVCRGAHDDSDDEF [K73N], “disrupting interaction strength”.
In the case of MDPLRRSPSPCLSSQPSSPSTPPCEMLGPVGIEAVLDQLKIKAMKMGFEFNIMVVGQSGLGKSTMVNTLFKSKVWKSNPPGLGVPTPQTLQLHSLTHVIEEKGVKLKLTVTDTPGFGDQINNDNCWDPILGYINEQYEQYLQEEILITRQRHIPDTRVHCCVYFVPPTGHCLRPLDIEFLQRLCRTVNVVPVIARADSLTMEEREAFRRRIQQNLRTHCIDIYPQMCFDEDINDKILNSKLRDRIPFAVVGADQEHLVNGRCVLGRKTKWGIIEVENMAHCEFPLLRDLLIRSHLQDLKDITHNIHYENYRVIRLNESHLLPRGPGWVNLAPASPGQLTTPRTFKVCRGAHDDSDDEF [V222I], the “effect of a mutation on the interaction” value was “disrupting interaction strength”.
On the same count and under the same terms, to MDPLRRSPSPCLSSQPSSPSTPPCEMLGPVGIEAVLDQLKIKAMKMGFEFNIMVVGQSGLGKSTMVNTLFKSKVWKSNPPGLGVPTPQTLQLHSLTHVIEEKGVKLKLTVTDTPGFGDQINNDNCWDPILGYINEQYEQYLQEEILITRQRHIPDTRVHCCVYFVPPTGHCLRPLDIEFLQRLSRTVNVVPVIARADSLTMEEREAFRRRIQQNLRTHCIDVYPQMCFDEDINDKILNSKLRDRIPFAVVGADQEHLVNGRCVLGRKTKWGIIEVENMAHCEFPLLRDLLIRSHLQDLKDITHNIHYENYRVIRLNESHLLPRGPGWVNLAPASPGQLTTPRTFKVCRGAHDDSDDEF [C184S] belongs “with no effect”; to MDPLRRSPSPCLSSQPSSPSTPPCEMLGPVGIEAVLDQLKIKAMKMGFEFNIMVVGQSGLGKSTMVNTLFKSKVWKSNPPGLGVPTPQTLQLHSLTHVIEEKGVKLKLTVTDTPGFGDQINNDNCWDPILGYINEQYEQYLQEEILITRQRHIPDTRVHCCVYFVPPTGHCLRPLDIEFLQRLCRTVNVVPVIARADSLTMEEREAFRRRIQQNLRTHCIDVYPQMCFDEDINDKILNSKLRDRIPFAVVGADQEHLVNGRCDLGRKTKWGIIEVENMAHCEFPLLRDLLIRSHLQDLKDITHNIHYENYRVIRLNESHLLPRGPGWVNLAPASPGQLTTPRTFKVCRGAHDDSDDEF [V263D], “disrupting interaction strength”.

The values above are taken from IntAct's records for PubMed 31515488.
